Assay results published in IntAct's records for PubMed 20417604.

B1: Ataxin-1 (Homo sapiens), P54253 (parent)
chain: MKSNQERSNECLPPKKREIPATSRSSEEKAPTLPSDNHRVEGTAWLPGNPGGRGHGGGRHGPAGTSVELGLQQGIGLHKALSTGLDYSPPSAPRSVPVATTLPAAYATPQPGTPVSPVQYAHLPHTFQFIGSSQYSGTYASFIPSQLIPPTANPVTSAVASAAGATTPSQRSQLEAYSTLLANMGSLSQTPGHKAEQQQQQQQQQQQQHQHQQQQQQQQQQQQQQHLSRAPGLITPGSPPPAQQNQYVHISSSPQNTGRTASPPAIPVHLHPHQTMIPHTLTLGPPSQVVMQYADSGSHFVPREATKKAESSRLQQAIQAKEVLNGEMEKSRRYGAPSSADLGLGKAGGKSVPHPYESRHVVVHPSPSDYSSRDPSGVRASVMVLPNSNTPAADLEVQQATHREASPSTLNDKSGLHLGKPGHRSYALSPHTVIQTTHSASEPLPVGLPATAFYAGTQPPVIGYLSGQQQAITYAGSLPQHLVIPGTQPLLIPVGSTDMEASGAAPAIVTSSPQFAAVPHTFVTTALPKSENFNPEALVTQAAYPAMVQAQIHLPVVQSVASPAAAPPTLPPYFMKGSIIQLANGELKKVEDLKTEDFIQSAEISNDLKIDSSTVERIEDSHSPGVAVIQFAVGEHRAQVSVEVLVEYPFFVFGQGWSSCCPERTSQLFDLPCSKLSVGDVCISLTLKNLKNGSVKKGQPVDPASVLLKHSKADGLAGSRHRYAEQENGINQGSAQMLSENGELKFPEKMGLPAAPFLTKIEPSKPAATRKRRWSAPESRKLEKSEDEPPLTLPKPSLIPQEVKICIEGRSNVGK

Variants of: B1
Conditions: with wdfy3_human WDFY3, Q8IZQ1
wdfy3_human WDFY3, Q8IZQ1, sequence (Q8IZQ1 whole entry): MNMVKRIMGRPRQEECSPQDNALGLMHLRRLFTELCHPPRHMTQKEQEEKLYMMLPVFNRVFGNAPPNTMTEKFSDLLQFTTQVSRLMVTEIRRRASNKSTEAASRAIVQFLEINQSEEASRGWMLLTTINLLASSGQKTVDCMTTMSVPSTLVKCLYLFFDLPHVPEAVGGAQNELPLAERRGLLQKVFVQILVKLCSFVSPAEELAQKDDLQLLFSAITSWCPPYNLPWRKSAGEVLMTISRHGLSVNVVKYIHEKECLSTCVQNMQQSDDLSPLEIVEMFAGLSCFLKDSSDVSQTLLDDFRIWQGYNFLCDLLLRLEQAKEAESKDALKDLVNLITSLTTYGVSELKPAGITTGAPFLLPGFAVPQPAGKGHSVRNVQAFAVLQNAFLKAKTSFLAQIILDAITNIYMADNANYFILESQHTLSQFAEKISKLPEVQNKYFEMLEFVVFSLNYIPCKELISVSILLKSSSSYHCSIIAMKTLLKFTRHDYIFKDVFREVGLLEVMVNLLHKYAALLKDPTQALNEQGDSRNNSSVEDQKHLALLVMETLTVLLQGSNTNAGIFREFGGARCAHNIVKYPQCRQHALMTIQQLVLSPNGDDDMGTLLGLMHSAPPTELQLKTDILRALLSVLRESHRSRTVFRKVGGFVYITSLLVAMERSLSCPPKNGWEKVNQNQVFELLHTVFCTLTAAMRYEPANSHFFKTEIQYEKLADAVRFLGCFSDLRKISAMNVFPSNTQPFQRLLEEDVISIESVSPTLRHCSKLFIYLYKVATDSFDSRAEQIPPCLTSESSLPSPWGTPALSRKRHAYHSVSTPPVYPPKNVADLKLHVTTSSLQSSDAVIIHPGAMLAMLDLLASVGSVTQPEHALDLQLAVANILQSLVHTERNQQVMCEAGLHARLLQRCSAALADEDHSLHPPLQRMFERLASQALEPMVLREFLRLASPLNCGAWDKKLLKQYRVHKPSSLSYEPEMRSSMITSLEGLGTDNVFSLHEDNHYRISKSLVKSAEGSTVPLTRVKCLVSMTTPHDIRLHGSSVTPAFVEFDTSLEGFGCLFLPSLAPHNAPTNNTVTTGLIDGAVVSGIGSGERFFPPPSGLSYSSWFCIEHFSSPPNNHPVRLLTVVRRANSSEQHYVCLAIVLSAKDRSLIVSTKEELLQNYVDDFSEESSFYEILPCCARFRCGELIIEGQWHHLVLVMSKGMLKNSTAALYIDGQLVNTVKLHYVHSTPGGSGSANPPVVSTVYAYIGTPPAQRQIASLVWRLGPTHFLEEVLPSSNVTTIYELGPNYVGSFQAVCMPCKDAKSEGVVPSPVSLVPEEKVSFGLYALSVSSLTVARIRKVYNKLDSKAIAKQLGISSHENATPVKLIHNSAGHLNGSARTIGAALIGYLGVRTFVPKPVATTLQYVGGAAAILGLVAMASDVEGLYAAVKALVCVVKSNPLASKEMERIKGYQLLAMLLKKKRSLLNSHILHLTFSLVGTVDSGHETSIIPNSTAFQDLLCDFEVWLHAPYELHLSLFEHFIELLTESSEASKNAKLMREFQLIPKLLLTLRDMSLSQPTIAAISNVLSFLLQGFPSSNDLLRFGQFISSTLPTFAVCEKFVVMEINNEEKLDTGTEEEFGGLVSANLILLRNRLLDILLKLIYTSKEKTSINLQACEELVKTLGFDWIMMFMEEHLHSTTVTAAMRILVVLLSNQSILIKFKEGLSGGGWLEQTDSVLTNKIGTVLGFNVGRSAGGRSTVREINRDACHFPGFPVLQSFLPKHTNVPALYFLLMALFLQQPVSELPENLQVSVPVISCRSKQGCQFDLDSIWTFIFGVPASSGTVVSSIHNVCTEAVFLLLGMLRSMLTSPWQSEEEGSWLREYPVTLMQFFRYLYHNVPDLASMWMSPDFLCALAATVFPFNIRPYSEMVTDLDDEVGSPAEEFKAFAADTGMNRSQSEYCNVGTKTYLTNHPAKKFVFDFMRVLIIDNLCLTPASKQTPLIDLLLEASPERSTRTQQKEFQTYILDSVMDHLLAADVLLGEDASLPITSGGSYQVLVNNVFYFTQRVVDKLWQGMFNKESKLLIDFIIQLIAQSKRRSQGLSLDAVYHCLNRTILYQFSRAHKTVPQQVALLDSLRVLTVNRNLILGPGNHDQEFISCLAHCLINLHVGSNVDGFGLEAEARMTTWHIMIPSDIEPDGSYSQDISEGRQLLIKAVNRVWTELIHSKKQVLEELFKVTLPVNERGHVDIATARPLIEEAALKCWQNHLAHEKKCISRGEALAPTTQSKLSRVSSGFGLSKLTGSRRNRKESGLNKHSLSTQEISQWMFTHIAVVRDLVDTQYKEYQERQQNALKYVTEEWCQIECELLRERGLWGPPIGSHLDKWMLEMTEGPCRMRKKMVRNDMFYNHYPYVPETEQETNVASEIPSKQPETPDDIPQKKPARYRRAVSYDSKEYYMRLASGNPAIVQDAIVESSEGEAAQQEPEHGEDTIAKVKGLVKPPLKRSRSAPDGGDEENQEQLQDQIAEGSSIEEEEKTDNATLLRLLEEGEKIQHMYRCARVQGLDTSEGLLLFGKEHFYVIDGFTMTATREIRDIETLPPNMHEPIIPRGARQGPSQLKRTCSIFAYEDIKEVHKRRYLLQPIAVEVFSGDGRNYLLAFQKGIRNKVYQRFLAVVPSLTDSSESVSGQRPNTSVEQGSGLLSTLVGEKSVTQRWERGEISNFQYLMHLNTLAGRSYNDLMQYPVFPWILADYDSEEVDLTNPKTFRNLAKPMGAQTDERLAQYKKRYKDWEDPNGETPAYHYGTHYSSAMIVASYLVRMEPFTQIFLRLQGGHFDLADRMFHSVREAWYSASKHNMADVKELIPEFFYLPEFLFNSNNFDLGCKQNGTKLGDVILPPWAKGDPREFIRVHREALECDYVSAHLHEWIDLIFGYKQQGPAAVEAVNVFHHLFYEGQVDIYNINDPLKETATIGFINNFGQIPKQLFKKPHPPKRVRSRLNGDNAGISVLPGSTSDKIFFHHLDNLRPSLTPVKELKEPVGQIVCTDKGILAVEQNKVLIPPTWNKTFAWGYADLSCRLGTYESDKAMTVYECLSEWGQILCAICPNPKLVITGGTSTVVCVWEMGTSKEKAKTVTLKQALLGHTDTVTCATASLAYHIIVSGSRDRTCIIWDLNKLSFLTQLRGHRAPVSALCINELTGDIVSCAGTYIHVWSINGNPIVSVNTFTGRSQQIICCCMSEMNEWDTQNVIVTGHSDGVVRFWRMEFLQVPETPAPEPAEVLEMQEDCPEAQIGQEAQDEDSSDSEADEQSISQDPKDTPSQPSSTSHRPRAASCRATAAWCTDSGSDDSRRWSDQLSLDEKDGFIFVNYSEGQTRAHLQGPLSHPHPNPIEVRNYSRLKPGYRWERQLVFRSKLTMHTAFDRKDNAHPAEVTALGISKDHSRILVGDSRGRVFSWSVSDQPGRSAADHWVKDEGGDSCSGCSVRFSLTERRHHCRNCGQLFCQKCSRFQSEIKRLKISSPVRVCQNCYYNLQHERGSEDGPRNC

Row | Variant | effect of a mutation on the interaction
1 | K771T | disrupting interaction
